Target: T1, acyl ghrelin (active hormone) in mouse blood, Q9EQX0
T1 chain: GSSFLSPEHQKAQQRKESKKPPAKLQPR

B1: native mouse BChE (wild-type mouse butyrylcholinesterase), expressed in mice from an AAV-8 vector (protein)
chain: EEDFIITTKTGRVRGLSMPVLGGTVTAFLGIPYAQPPLGSLRFKKPQPLNKWPDIHNATQYANSCYQNIDQAFPGFQGSEMWNPNTNLSEDCLYLNVWIPVPKPKNATVMVWIYGGGFQTGTSSLPVYDGKFLARVERVIVVSMNYRVGALGFLAFPGNPDAPGNMGLFDQQLALQWVQRNIAAFGGNPKSITIFGESAGAASVSLHLLCPQSYPLFTRAILESGSSNAPWAVKHPEEARNRTLTLAKFTGCSKENEMEMIKCLRSKDPQEILRNERFVLPSDSILSINFGPTVDGDFLTDMPHTLLQLGKVKKAQILVGVNKDEGTAFLVYGAPGFSKDNDSLITRKEFQEGLNMYFPGVSRLGKEAVLFYYVDWLGEQSPEVYRDALDDVIGDYNIICPALEFTKKFAELENNAFFYFFEHRSSKLPWPEWMGVMHGYEIEFVFGLPLGRRVNYTRAEEIFSRSIMKTWANFAKYGHPNGTQGNSTMWPVFTSTEQKYLTLNTEKSKIYSKLRAPQCQFWRLFFPKVLEMTGDIDETEQEWKAGFHRWSNYMMDWQNQFNDYTSKKESCTAL
In the case of B1, the “ratio of desacyl ghrelin (inactive peptide) over the active hormone in mouse blood, ghrelin ELISA, after AAV-BChE gene transfer (HCT116 colon cancer model)” value is reported as 2-fold rise and the “ratio of desacyl ghrelin (inactive peptide) over the active hormone in mouse blood, ghrelin ELISA, after AAV-BChE gene transfer (triple negative PDX model)” value is reported as 2-fold rise.
